Data as given in article PMC3413700.

System: Irr (Rhodobacter sphaeroides 2.4.1)
Assay: EMSA
Conditions: Mn2+ favored complex formation (1 mM MnCl2); Mn2+ in Kd assay not stated; EMSA: 20 mM TB pH 7.8, 5% glycerol, 1 mM DTT, 1 ug salmon sperm DNA, 0.1 mg/ml BSA, with or without 1 mM MnCl2, 15 ul, ~3 fmol probe, 30 min at 32 C; 6% PAGE …

ccpA upstream region showed a Kd of 900 nM.
mbfA upstream region gave a Kd of 800 nM.
